± gives the uncertainty stated by the source.
Experiment: self-splicing fitness, log relative to wild type (ln ratio); higher = more splicing; Tetrahymena group I intron in knt gene, E. coli kanamycin selection, DiMSum; sequences stand for … in CUCUCU…GGAGGGAAAAGUUAUCAGGCAUGCACCUGGUAGCUAGUCUUUAAACCAAUAGAUUGCAUCGGUUUAAAAGGCAAGACCGUCAAAUUGCGGGAAAGGGGUCAACAGCCGUUCAGUACCAAGUCUCAGGGGAAACUUUGAGAUGGCCUUGCAAAGGGUAUGGUAAUAAGCUGACGGACAUGGUCCUAACCACGCAGCCAAGUCCUAAGUCAACAGAUCUUCUGUUGAUAUGGAUGCAGUUCACAGACUAAAUGUCGGUCGGGGAAGAUGUAUUCUUCUCAUAAGAUAUAGUCGGACCUCUCCUUAAUGGGAGCUAGCGGAUGAAGUGAUGCAACACUGGAGCCGCUGGGAACUAAUUUGUAUGCGAAAGUAUAUUGAUUAGUUUUGGAGUACUCGUGGUCG
Method in brief: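 Fitness was computed with DiMSum as the error-weighted combination of replicate fold changes, kanamycin versus none, each normalised to wild type. The library randomised all eight intron nucleotides of the P1ex region, with the intron placed in the knt kanamycin-resistance gene on pET-22b(+) in E. coli BL21(DE3). Six replicate transformations were grown overnight at 37°C or 30°C on LB agar with or without 25 μg/mL kanamycin, plus 100 μg/mL carbenicillin, 50 μM IPTG and 0.2% rhamnose. Pooled colonies were amplicon-sequenced on an Illumina HiSeq 2500.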

Sequence | self-splicing fitness (ln) (30 °C) | self-splicing fitness (ln) (37 °C)
UAAGAGCAAUAUUACGCGAA | -2.74 ± 0.22 | -1.6 ± 0.16
UAAGAGCAAUAUUACGCGAU | -3.86 ± 0.26 | -2.56 ± 0.24
UAAGAGCAAUAUUACGCGGG | -3.49 ± 0.37 | -3.91 ± 0.36
UAAGAGCAAUAUUACGGAAU | -3.52 ± 0.41 | -2.14 ± 0.41
UAAGAGCAAUAUUACGGACU |  | -2.75 ± 0.41
UAAGAGCAAUAUUACGGCAC |  | -1.16 ± 0.48
UAAGAGCAAUAUUACGGCUA | -1.03 ± 0.1 | -0.141 ± 0.11
UAAGAGCAAUAUUACGGGCA | -2.73 ± 0.26 | -1.99 ± 0.24
UAAGAGCAAUAUUACGGGCC | -2.08 ± 0.32 | -0.897 ± 0.3
UAAGAGCAAUAUUACGGGCG | -2.73 ± 0.16 | -2.29 ± 0.19
UAAGAGCAAUAUUACGGUUG | -3.21 ± 0.2 | -1.87 ± 0.18
UAAGAGCAAUAUUACGUGGA | -2.84 ± 0.28 | -2.14 ± 0.3
UAAGAGCAAUAUUACGUGUG | -2.99 ± 0.18 | -1.4 ± 0.14
UAAGAGCAAUAUUACGUUCG | -1.48 ± 0.11 | -0.784 ± 0.14
UAAGAGCAAUAUUACGUUCU | -3.45 ± 0.28 | -1.55 ± 0.19
UAAUAGCAAUAUUACGAAUC | -4.21 ± 0.31 | -2.34 ± 0.39
UAAUAGCAAUAUUACGACGG | -1.51 ± 0.11 | -0.463 ± 0.13
UAAUAGCAAUAUUACGAGAG |  | -2.68 ± 0.3
UAAUAGCAAUAUUACGAGUG | -1.11 ± 0.08 | -0.572 ± 0.09
UAAUAGCAAUAUUACGCACA | -0.694 ± 0.14 | -0.0269 ± 0.15
UAAUAGCAAUAUUACGCAGU | -3.55 ± 0.37 | -2.1 ± 0.34
UAAUAGCAAUAUUACGCCCU | -1.59 ± 0.4 | -0.36 ± 0.38
UAAUAGCAAUAUUACGCGCG | -0.452 ± 0.11 | -0.333 ± 0.14
UAAUAGCAAUAUUACGCGGC | -2.97 ± 0.36 | -2.34 ± 0.37
UAAUAGCAAUAUUACGCGUA | -1.85 ± 0.14 | -0.713 ± 0.12
UAAUAGCAAUAUUACGCUAU | -2.93 ± 0.19 | -1.85 ± 0.21

Sequence | self-splicing fitness (ln) (30 °C) | self-splicing fitness (ln) (37 °C)
UAAUAGCAAUAUUACGCUGG | -1.95 ± 0.14 | -1.85 ± 0.16
UAAUAGCAAUAUUACGCUGU | -3.69 ± 0.28 | -0.659 ± 0.17
UAAUAGCAAUAUUACGGCAC | -2.86 ± 0.22 | -1.48 ± 0.19
UAAUAGCAAUAUUACGGUGC |  | -1.98 ± 0.36
UAAUAGCAAUAUUACGUAAA | -3.19 ± 0.2 | -1.88 ± 0.19
UAAUAGCAAUAUUACGUAUA | -1.82 ± 0.17 | -1.17 ± 0.17
UAAUAGCAAUAUUACGUCCA | -0.695 ± 0.1 | -0.122 ± 0.11
UAAUAGCAAUAUUACGUGAA | -1.38 ± 0.1 | -1.22 ± 0.14
UAAUAGCAAUAUUACGUGGC | -3.76 ± 0.35 | -2.88 ± 0.43
UAAUAGCAAUAUUACGUUAU | -2.86 ± 0.21 | -1.44 ± 0.19
UAAUAGCAAUAUUACGUUGC | -3.64 ± 0.23 | -2.71 ± 0.31
UACAAGCAAUAUUACGAAUC | -3.62 ± 0.17 | -2.7 ± 0.22
UACAAGCAAUAUUACGACCG | -0.233 ± 0.096 | 0.952 ± 0.13
UACAAGCAAUAUUACGACCU | -0.732 ± 0.068 | -0.688 ± 0.086
UACAAGCAAUAUUACGAGAA | -2.1 ± 0.29 | -2.42 ± 0.33
UACAAGCAAUAUUACGAGCU | -3.19 ± 0.12 | -1.58 ± 0.11
UACAAGCAAUAUUACGAUCG | 0.00344 ± 0.082 | 0.983 ± 0.11
UACAAGCAAUAUUACGCAAC |  | -2.36 ± 0.3
UACAAGCAAUAUUACGCAGU | -3.96 ± 0.27 | -3.27 ± 0.21
UACAAGCAAUAUUACGCCAG | -1.5 ± 0.12 | -1.81 ± 0.15
UACAAGCAAUAUUACGCCGA | -1.29 ± 0.1 | -0.999 ± 0.11
UACAAGCAAUAUUACGCUAA | -1.95 ± 0.11 | -1.35 ± 0.11
UACAAGCAAUAUUACGCUUG | -3.1 ± 0.23 | -2.79 ± 0.41
UACAAGCAAUAUUACGGAAU | -3.62 ± 0.24 | -2.44 ± 0.25
UACAAGCAAUAUUACGGCAA | -0.904 ± 0.072 | -0.0888 ± 0.088
UACAAGCAAUAUUACGGCAC | -1.64 ± 0.14 | -0.345 ± 0.2

Sequence | self-splicing fitness (ln) (30 °C) | self-splicing fitness (ln) (37 °C)
UACAAGCAAUAUUACGGGAC | -2.61 ± 0.16 | -2.58 ± 0.17
UACAAGCAAUAUUACGGGCC | -3.08 ± 0.23 | -2.55 ± 0.22
UACAAGCAAUAUUACGUGAU | -3.16 ± 0.14 | -1.34 ± 0.14
UACAAGCAAUAUUACGUUAG | -3.02 ± 0.11 | -2.11 ± 0.097
UACAAGCAAUAUUACGUUGA | -2.72 ± 0.17 | -2.06 ± 0.15
UACAAGCAAUAUUACGUUGU | -3.58 ± 0.12 | -2.99 ± 0.14
UACCAGCAAUAUUACGAACC | -3.08 ± 0.2 | -1.05 ± 0.23
UACCAGCAAUAUUACGAAGC | -3.64 ± 0.25 | -2.17 ± 0.18
UACCAGCAAUAUUACGAGCG | -0.124 ± 0.06 | 0.206 ± 0.075
UACCAGCAAUAUUACGAGGC | -4.87 ± 0.26 | -2.23 ± 0.15
UACCAGCAAUAUUACGAUUU | -1.25 ± 0.076 | -0.288 ± 0.075
UACCAGCAAUAUUACGCACG | 0.061 ± 0.066 | -0.903 ± 0.066
UACCAGCAAUAUUACGCCAU | -3.27 ± 0.22 | -2.85 ± 0.16
UACCAGCAAUAUUACGCCGG | -3.31 ± 0.22 | -3.14 ± 0.37
UACCAGCAAUAUUACGCUAU | -2.45 ± 0.11 | -0.409 ± 0.089
UACCAGCAAUAUUACGGACA | -0.227 ± 0.061 | 0.423 ± 0.076
UACCAGCAAUAUUACGGACG | -0.177 ± 0.055 | 0.479 ± 0.088
UACCAGCAAUAUUACGGCAU | -1.37 ± 0.089 | -0.029 ± 0.11
UACCAGCAAUAUUACGGCCU | -0.232 ± 0.078 | 0.212 ± 0.094
UACCAGCAAUAUUACGGCGC | -1.32 ± 0.073 | -0.174 ± 0.097
UACCAGCAAUAUUACGGCUC | -0.179 ± 0.074 | -0.0529 ± 0.096
UACCAGCAAUAUUACGGCUU | -0.562 ± 0.061 | 0.59 ± 0.097
UACCAGCAAUAUUACGGGCA | -0.875 ± 0.054 | 0.469 ± 0.087
UACCAGCAAUAUUACGGUGU | -3.64 ± 0.14 | -2.36 ± 0.13
UACCAGCAAUAUUACGGUUG | -1.64 ± 0.067 | -0.791 ± 0.084
